Test results reported in the supplement of paper PMC12764529.
± gives the half width of the 95% confidence interval.

Legend:
[1] = folding stability dG unfold (combined trypsin and chymotrypsin); higher = more stable
Procedure, shortened: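 Unfolding free energy was derived, per protease or combined, by relating Bayesian-fitted K50 values from sequencing counts to a sequence-predicted unfolded-state K50 and a shared folded-state K50. The underlying digests exposed cysteine-free mini-proteins under 80 residues, in a PA-tagged cDNA display construct, to trypsin and chymotrypsin at 11 threefold-diluted concentrations and to a no-protease condition. A filter kept only designs with AlphaFold2 dimer inter-PAE above 15.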

[2] = folding stability dG unfold from trypsin proteolysis; higher = more stable
Experimental: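 Folding stability of de novo designed mini-proteins (<80 aa, no Cys; designed by TrROS, TrMRF, ProteinMPNN and the joint model) was measured by cDNA display proteolysis with trypsin and chymotrypsin. Each protease was used at 11 concentrations in a threefold dilution series plus a no-protease condition. K50 was inferred by Bayesian fitting of sequencing counts, and dG unfold was derived against a sequence-predicted unfolded-state K50 (Tsuboyama et al. method). Sequences shown include variable-length N-terminal GS-type padding (SAGGSAGG...) inside a display construct carrying a PA tag. Rows were kept only if the AF2 dimer inter-PAE was >15, to exclude likely homo-oligomers.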

Sequence | folding stability dG unfold [1] | folding stability dG unfold [2]
SAGGSAGGSAGGSIEIDVNPEAGQLKIEIEMPMPNPNGKPRGPMRMEQEFRIDDPEDIKSAGGSAGGSAGGS [r4_10_TrROS] | < -1 kcal/mol | -0.641 ± 0.33 kcal/mol
SAGGSAGGSAGGSMAVPQTVEVEAGAKPILVTTYRLPPDGAVVRIEYPGPAVVLEEELESAGGSAGGSAGGS [r10_630_JUSTAS] | < -1 kcal/mol | -0.445 ± 0.2 kcal/mol
SAGGSAGGSAGGSMIVDTKVPENSVAYTPDGKKIGPEEVKKALEEGLGYIGSTPVPPGLSAGGSAGGSAGGS [r4_47_JUSTAS] | -0.835 ± 0.31 kcal/mol | 0.127 ± 0.029 kcal/mol
SAGGSAGGSAGGSMKVEPLPHPDRPVTVETTPDSITVTDPANPPATTTFSSSSTVSVDSSAGGSAGGSAGGS [r4_321_JUSTAS] | -0.505 ± 0.44 kcal/mol | -0.122 ± 0.078 kcal/mol
SAGGSAGGSAGGSMPKPKVIKVPVDPNVSKEEVAKEVLPKTGLNVESIEESEDVLYVLNSAGGSAGGSAGGS [r4_469_JUSTAS] | < -1 kcal/mol | -1.11 ± 0.38 kcal/mol
SAGGSAGGSAGGSNIILIPAKPGEEFKIKINGRPLKIQRDKDKPGYIMIEFPDGQWQPISAGGSAGGSAGGS [r4_488_TrROS] | -0.174 ± 0.24 kcal/mol | -0.041 ± 0.2 kcal/mol
SAGGSAGGSAGGSPEVVPVDHPDRELLLVRFPDSVVLTDPSAPGASRTFPADTDVVVDASAGGSAGGSAGGS [r4_321_TrMRF] | < -1 kcal/mol | -1.37 ± 0.41 kcal/mol
SAGGSAGGSAGGSSLSTVAPSPSGRLYVELDIDEPVVSPTPIPTGTGPVSGIIVSPVLLSAGGSAGGSAGGS [r10_92_JUSTAS] | < -1 kcal/mol | -0.989 ± 0.31 kcal/mol
SAGGSAGGSAGGSSTITIGDSEVSVTADPKAPVATASYPASGVTFTITRPDASVTITPTPSAGGSAGGSAGG [r7_156_JUSTAS] | < -1 kcal/mol | -0.783 ± 0.42 kcal/mol
SAGGSAGGSAGGTAKELVNEIAKEFMQDHPNQEIPIEVEVRTNGKPVKAEIPIRLPPGQSAGGSAGGSAGGS [r10_1204_TrROS] | < -1 kcal/mol | -0.402 ± 0.07 kcal/mol
SAGGSAGGSAGGWVFDSDDYPKFQDAAKDHGLKPKSINDDDNTMTVDPEDPNRIRDAINESAGGSAGGSAGG [r7_285_TrROS] | < -1 kcal/mol | -0.147 ± 0.21 kcal/mol
SAGGSAGGSAGKITIRNPENGYAIKIKFGDKEKTIPIDPDQIDEFLEKLPGIKVEPYPWKSAGGSAGGSAGG [r11_57_TrROS] | -0.899 ± 0.59 kcal/mol | -0.574 ± 0.2 kcal/mol
SAGGSAGGSAGMEDLVTVTETVETTDTLRDEGGTPTGTTTTTTTVTKLLSPEKVAALKEASAGGSAGGSAGG [r11_620_JUSTAS] | -0.85 ± 0.23 kcal/mol | -0.116 ± 0.021 kcal/mol
SAGGSAGGSAGMKIVAPSKEEAEKIAKELAKELGLPDEIKDLEIEVIPLKPTPDGGFIPYSAGGSAGGSAGG [r17_237_TrMRF] | -0.715 ± 0.22 kcal/mol | -0.168 ± 0.17 kcal/mol
SAGGSAGGSAGMKTYTVPLPGGDPALIEQTAQDIVEKIPGLEDHEVKVDAGDDGTLTIVESAGGSAGGSAGG [r17_324_JUSTAS] | < -1 kcal/mol | -0.736 ± 0.16 kcal/mol
SAGGSAGGSAGMKVVLTVPESEAAKPEVLEAKAQEIKEKHPGEEVEVEFITNPFPPGTPLSAGGSAGGSAGG [r11_743_JUSTAS] | -0.108 ± 0.1 kcal/mol | 0.456 ± 0.019 kcal/mol
SAGGSAGGSAGMTLEEKLKEAEEKHKKEGGPATITITDPTATGVSKTYTVTIENEGLKVESAGGSAGGSAGG [r11_954_JUSTAS] | -0.132 ± 0.36 kcal/mol | 0.034 ± 0.055 kcal/mol
SAGGSAGGSAGPKPEYIRIKIEMWNPDGNPREHDFTFPPGHKDQIENLADNYGFRVSIEKSAGGSAGGSAGG [r11_603_TrROS] | -0.281 ± 0.29 kcal/mol | 0.278 ± 0.13 kcal/mol
SAGGSAGGSAGPKPIEFEDPDNGRKIEYWPEENQISIENPGDGKEKEYPMDSPEELKEWMSAGGSAGGSAGG [r11_936_TrROS] | < -1 kcal/mol | 0.117 ± 0.17 kcal/mol
SAGGSAGGSAGPMIKIGSTTRPFTPPLGGRLEYAPIDVDQSEEVAKEVAEELKPKGVIVNLSAGGSAGGSAG [r3_157_JUSTAS] | < -1 kcal/mol | -0.774 ± 0.35 kcal/mol
SAGGSAGGSAGPPIYWRIEFENPGKKHTMTIPRDMPVDDIKEIADEIAKRFPMPISIEPVSAGGSAGGSAGG [r11_515_TrROS] | -0.565 ± 0.25 kcal/mol | -0.335 ± 0.22 kcal/mol

Sequence | folding stability dG unfold [1] | folding stability dG unfold [2]
SAGGSAGGSAGPPVLVSINPDENATVEVRTRPDGKPVLLFTVPKTGEVLVVHPDGKIDNSSAGGSAGGSAGG [r11_601_TrMRF] | -0.246 ± 0.35 kcal/mol | -0.0916 ± 0.17 kcal/mol
SAGGSAGGSAGSKTITFIMVHPDDGYISDMEMRYTDNGIEMEMEWIPVPKEDAEELKDLISAGGSAGGSAGG [r11_47_TrROS] | -0.044 ± 0.19 kcal/mol | 0.225 ± 0.036 kcal/mol
SAGGSAGGSAGTSTTVTEKPDPNSNRTYTTTTVERTTADGTTTTVTTTVYPDSTTSTTTASAGGSAGGSAGG [r11_987_JUSTAS] | 0.0978 ± 0.2 kcal/mol | 0.557 ± 0.094 kcal/mol
SAGGSAGGSAHTIEDPDNNKKIEVHPPPNGNYMVEIERPDNGEKKTIMMPPDDVEEALNQISAGGSAGGSAG [r3_162_TrROS] | < -1 kcal/mol | -0.139 ± 0.2 kcal/mol
SAGGSAGGSAKEVEVEVEEELPGGYYRATVRLPGEEKPLEVVVKGPREDALKAAEELAKEESAGGSAGGSAG [r3_104_TrMRF] | < -1 kcal/mol | -0.0768 ± 0.16 kcal/mol
SAGGSAGGSAKITITAPPGETYRIKVKVKNENGEWKEVTRTIKVGEPLEDIEEVEIERIEPESAGGSAGGSA [r18_223_TrROS_Hall] | -0.146 ± 0.27 kcal/mol | 0.0462 ± 0.12 kcal/mol
SAGGSAGGSAMIVVTLDDPEEAREAVRARFGPEVEITPLETTTVGDRVFTKIAVRVPPELASAGGSAGGSAG [r3_87_JUSTAS] | -0.395 ± 0.24 kcal/mol | -0.351 ± 0.19 kcal/mol
SAGGSAGGSAMLKVTVKVPGTSKDYDFNVPESVGKEEAEKRLEEEYPGAEVTEIVEIPGEELSAGGSAGGSA [r18_242_JUSTAS] | -0.469 ± 0.26 kcal/mol | 0.545 ± 0.027 kcal/mol
SAGGSAGGSAMPIPALVLVERPLPDGETEEREIPVIVEPDKIDEIIEEAEKEGYKVKEVKASAGGSAGGSAG [r3_453_TrMRF] | < -1 kcal/mol | -0.271 ± 0.06 kcal/mol
SAGGSAGGSAMRVVEITVPPENPEELKREIAEAFPFEVEGEEVGDGSVTLRFILPEDVELGSAGGSAGGSAG [r3_457_TrMRF] | -0.212 ± 0.13 kcal/mol | 0.142 ± 0.097 kcal/mol
SAGGSAGGSAPAEFPIEILEVERNPGNPMVEVGIKIPGDGRYIKIHFPPNGKIDIELVPLPSAGGSAGGSAG [r3_294_TrROS] | -0.29 ± 0.16 kcal/mol | 0.265 ± 0.1 kcal/mol
SAGGSAGGSASSSVTITNRVTNPDTGLRYITIPSKGERVTLSPDESATIPVPPDAPVSVLGSSAGGSAGGSA [r18_329_JUSTAS] | < -1 kcal/mol | -0.694 ± 0.24 kcal/mol
SAGGSAGGSATITISLGPPEYIEVYDPANGVKRKFPASVPKEEVAAEIEKEYPDTPVVFTTDASAGGSAGGS [r12_423_JUSTAS] | -0.172 ± 0.32 kcal/mol | 0.394 ± 0.06 kcal/mol
SAGGSAGGSAVKVIPFPFNEALDLLNSGEPKEIHVVGPPGWYMTVQFNPPDNNIEIDDPVPPSAGGSAGGSA [r18_400_TrROS] | 0.194 ± 0.14 kcal/mol | 0.732 ± 0.043 kcal/mol
SAGGSAGGSEGQPIIIKIKMENPGNGKKHKFDIMVPPGFKNAEEQANRLMNNFGPVKDVEIYPSAGGSAGGS [r12_942_TrROS] | < -1 kcal/mol | -0.846 ± 0.3 kcal/mol
SAGGSAGGSEPDFVVVDIPFPPDVPLEALVEFARSLPSVVVNLVDEEGRPVSIALPREAVERLASAGGSAGG [r6_791_TrMRF] | < -1 kcal/mol | -0.347 ± 0.15 kcal/mol
SAGGSAGGSETSIVFLEEEVLVEEEITLYRDGTPTRERRVRTERVVIRVPVKPEEDVNNPLLLSAGGSAGGS [r12_713_JUSTAS] | < -1 kcal/mol | -0.765 ± 0.82 kcal/mol
SAGGSAGGSGKTIIIPLPNGNVIKVEVEEGSVKITYPKPKKELIKVENPKNALKNIKTYSYKGSAGGSAGGS [r12_32_TrMRF] | < -1 kcal/mol | -0.176 ± 0.32 kcal/mol
SAGGSAGGSGSMAEVEAIVERAKELGLVPKSITTDPATNKPVVDLQPPSPELLEADPEILALLSAGGSAGGS [r12_482_JUSTAS] | < -1 kcal/mol | -0.585 ± 0.23 kcal/mol
SAGGSAGGSKIEMMHAIRDNGKPFFVRITMDIQPQKDPNGEPKVNFEPKIEIYDPDGKPIFEISAGGSAGGS [r20_224_TrROS] | 0.392 ± 0.3 kcal/mol | 0.641 ± 0.14 kcal/mol
SAGGSAGGSMEIVSTGSKEDAEEAVKEKVAAGEKARVVLRSPTDPTPVSEEEVTISEEELKEASAGGSAGGS [r12_241_JUSTAS] | < -1 kcal/mol | -1.61 ± 0.88 kcal/mol
